The record followed here is US20070003982.

Series [1] concerns the target full length αII-spectrin, rat (UniProt P16086).
Series [2] deals with full length αII-spectrin, rat, P16086.

As to purified porcine calpain-2, the “αII-spectrin fragmentation patterns (Western blot after in vitro digestion of rat brain cortex lysate)” value in series [1] is “calpain-produced SBDP150”.

B1: purified recombinant human caspase-3 (protein)
chain: SGISLDNSYKMDYPEMGLCIIINNKNFHKSTGMTSRSGTDVDAANLRETFRNLKYEVRNKNDLTREEIVELMRDVSKEDHSKRSSFVCVLLSHGEEGIIFGTNGPVDLKKITNFFRGDRCRSLTGKPKLFIIQACRGTELDCGIETDSGVDDDMACHKIPVEADFLYAYSTAPGYYSWRNSKDGSWFIQSLCAMLKQYADKLEFMHILTRVNRKVATEFESFSFDATFHAKKQIPCIVSMLTKELYFYH
As to B1, in series [2], the “αII-spectrin fragmentation patterns (Western blot after in vitro digestion of rat brain cortex lysate)” value is recorded as “Caspase-3-produced SBP150i”.
